T1: GR-Gluc2 (full-length glucocorticoid receptor fused at its carboxyl terminus to Gluc2) (human, UniProt P04150 1-777)
T1 construct: domain: full length;range 94-169; Expressed in HEK-293/HEK-293T cells by transfection; also called Gluc2-GR; not shown: Gaussia luciferase (Gluc), carboxyl-terminal fragment Gluc2, amino acids 94-169
T1 sequence (looked up): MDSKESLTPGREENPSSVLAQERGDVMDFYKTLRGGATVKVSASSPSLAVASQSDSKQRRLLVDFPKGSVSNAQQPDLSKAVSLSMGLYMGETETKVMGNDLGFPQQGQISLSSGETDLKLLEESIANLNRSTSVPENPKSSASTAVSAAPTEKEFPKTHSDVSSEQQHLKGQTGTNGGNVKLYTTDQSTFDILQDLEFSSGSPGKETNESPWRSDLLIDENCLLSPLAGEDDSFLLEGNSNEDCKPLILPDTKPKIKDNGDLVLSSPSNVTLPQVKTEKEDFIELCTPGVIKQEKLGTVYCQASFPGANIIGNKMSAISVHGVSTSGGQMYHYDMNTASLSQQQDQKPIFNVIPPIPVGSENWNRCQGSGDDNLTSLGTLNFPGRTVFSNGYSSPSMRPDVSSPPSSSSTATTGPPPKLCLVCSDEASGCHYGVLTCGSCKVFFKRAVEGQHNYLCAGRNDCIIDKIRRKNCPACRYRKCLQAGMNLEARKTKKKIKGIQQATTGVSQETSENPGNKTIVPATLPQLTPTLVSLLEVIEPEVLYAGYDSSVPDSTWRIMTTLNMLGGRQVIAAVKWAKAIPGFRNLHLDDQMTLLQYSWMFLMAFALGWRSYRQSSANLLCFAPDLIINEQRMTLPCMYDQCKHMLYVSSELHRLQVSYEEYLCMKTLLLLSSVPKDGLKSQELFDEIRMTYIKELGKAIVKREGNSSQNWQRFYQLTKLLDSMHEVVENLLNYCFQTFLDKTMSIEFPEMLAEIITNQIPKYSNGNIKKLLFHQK

T2: ERα-Gluc2 (estrogen receptor alpha fused to Gluc2) (UniProt P03372 1-595)
T2 construct: not shown: Gaussia luciferase (Gluc), carboxyl-terminal fragment Gluc2, amino acids 94-169
T2 sequence (looked up): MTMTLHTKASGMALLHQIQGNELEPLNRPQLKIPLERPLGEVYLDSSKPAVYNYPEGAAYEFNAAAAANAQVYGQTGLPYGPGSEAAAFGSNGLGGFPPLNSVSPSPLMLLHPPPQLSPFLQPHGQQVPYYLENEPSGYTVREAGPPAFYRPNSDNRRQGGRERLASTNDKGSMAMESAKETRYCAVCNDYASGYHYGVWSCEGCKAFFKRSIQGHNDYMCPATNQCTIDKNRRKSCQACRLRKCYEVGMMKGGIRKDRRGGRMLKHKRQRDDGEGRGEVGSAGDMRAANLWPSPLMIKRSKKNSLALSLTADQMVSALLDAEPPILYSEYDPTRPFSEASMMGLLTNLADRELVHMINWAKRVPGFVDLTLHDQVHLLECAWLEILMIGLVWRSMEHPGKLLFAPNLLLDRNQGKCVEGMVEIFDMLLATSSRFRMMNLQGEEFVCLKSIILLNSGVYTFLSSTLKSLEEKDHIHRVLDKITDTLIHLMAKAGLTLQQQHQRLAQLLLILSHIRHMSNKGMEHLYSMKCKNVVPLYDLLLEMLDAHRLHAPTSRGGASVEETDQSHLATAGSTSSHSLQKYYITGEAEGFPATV

T3: MR-Gluc2 (mineralocorticoid receptor fused to Gluc2) (UniProt P08235 1-984)
T3 construct: not shown: Gaussia luciferase (Gluc), carboxyl-terminal fragment Gluc2, amino acids 94-169
T3 sequence (looked up): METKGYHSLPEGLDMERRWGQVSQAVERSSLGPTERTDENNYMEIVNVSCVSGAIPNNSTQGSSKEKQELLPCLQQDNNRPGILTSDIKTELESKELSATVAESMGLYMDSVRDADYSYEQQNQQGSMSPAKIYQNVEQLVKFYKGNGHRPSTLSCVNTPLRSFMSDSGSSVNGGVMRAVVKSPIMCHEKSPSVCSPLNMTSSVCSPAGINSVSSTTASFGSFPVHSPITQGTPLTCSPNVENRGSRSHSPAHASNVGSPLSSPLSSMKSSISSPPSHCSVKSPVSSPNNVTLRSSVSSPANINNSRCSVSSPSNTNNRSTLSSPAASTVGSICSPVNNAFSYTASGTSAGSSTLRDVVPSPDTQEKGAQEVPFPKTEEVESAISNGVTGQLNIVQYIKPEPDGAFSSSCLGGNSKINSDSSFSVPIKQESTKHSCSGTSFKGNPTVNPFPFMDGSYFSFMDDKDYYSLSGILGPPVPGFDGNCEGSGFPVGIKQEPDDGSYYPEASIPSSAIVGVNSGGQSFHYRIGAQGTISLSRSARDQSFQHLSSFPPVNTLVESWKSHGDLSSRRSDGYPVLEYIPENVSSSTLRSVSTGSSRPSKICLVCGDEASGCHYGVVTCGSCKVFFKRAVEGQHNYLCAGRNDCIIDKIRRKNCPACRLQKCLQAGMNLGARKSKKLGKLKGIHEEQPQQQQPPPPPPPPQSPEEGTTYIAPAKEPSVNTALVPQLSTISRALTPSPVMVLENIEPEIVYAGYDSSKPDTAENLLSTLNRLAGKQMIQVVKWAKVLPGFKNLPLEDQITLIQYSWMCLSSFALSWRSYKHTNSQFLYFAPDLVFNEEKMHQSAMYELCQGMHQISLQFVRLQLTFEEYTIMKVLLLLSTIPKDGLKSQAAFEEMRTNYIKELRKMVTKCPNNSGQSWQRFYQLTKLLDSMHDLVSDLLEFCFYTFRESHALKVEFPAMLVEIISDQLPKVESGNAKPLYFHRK

B1: Gluc1-ETV4 (other, UniProt P43268 1-484, looked up)
chain: MERRMKAGYLDQQVPYTFSSKSPGNGSLREALIGPLGKLMDPGSLPPLDSEDLFQDLSHFQETWLAEAQVPDSDEQFVPDFHSENLAFHSPTTRIKKEPQSPRTDPALSCSRKPPLPYHHGEQCLYSSAYDPPRQIAIKSPAPGALGQSPLQPFPRAEQRNFLRSSGTSQPHPGHGYLGEHSSVFQQPLDICHSFTSQGGGREPLPAPYQHQLSEPCPPYPQQSFKQEYHDPLYEQAGQPAVDQGGVNGHRYPGAGVVIKQEQTDFAYDSDVTGCASMYLHTEGFSGPSPGDGAMGYGYEKPLRPFPDDVCVVPEKFEGDIKQEGVGAFREGPPYQRRGALQLWQFLVALLDDPTNAHFIAWTGRGMEFKLIEPEEVARLWGIQKNRPAMNYDKLSRSLRYYYEKGIMQKVAGERYVYKFVCEPEALFSLAFPDNQRPALKAEFDRPVSEEDTVPLSHLDESPAYLPELAGPAQPFGPKGGYSY
notes: not shown: Gaussia luciferase (Gluc), amino-terminal fragment Gluc1, amino acids 1-93
B2: Gluc1-ETV2 (other, UniProt O00321 1-342, looked up)
chain: MDLWNWDEASPQEVPPGNKLAGLEGAKLGFCFPDLALQGDTPTATAETCWKGTSSSLASFPQLDWGSALLHPEVPWGAEPDSQALPWSGDWTDMACTAWDSWSGASQTLGPAPLGPGPIPAAGSEGAAGQNCVPVAGEATSWSRAQAAGSNTSWDCSVGPDGDTYWGSGLGGEPRTDCTISWGGPAGPDCTTSWNPGLHAGGTTSLKRYQSSALTVCSEPSPQSDRASLARCPKTNHRGPIQLWQFLLELLHDGARSSCIRWTGNSREFQLCDPKEVARLWGERKRKPGMNYEKLSRGLRYYYRRDIVRKSGGRKYTYRFGGRVPSLAYPDCAGGGRGAETQ
notes: as for B1
B3: Gluc1-ERG (other, UniProt P11308-3 1-486, looked up)
chain: MIQTVPDPAAHIKEALSVVSEDQSLFECAYGTPHLAKTEMTASSSSDYGQTSKMSPRVPQQDWLSQPPARVTIKMECNPSQVNGSRNSPDECSVAKGGKMVGSPDTVGMNYGSYMEEKHMPPPNMTTNERRVIVPADPTLWSTDHVRQWLEWAVKEYGLPDVNILLFQNIDGKELCKMTKDDFQRLTPSYNADILLSHLHYLRETPLPHLTSDDVDKALQNSPRLMHARNTGGAAFIFPNTSVYPEATQRITTRPDLPYEPPRRSAWTGHGHPTPQSKAAQPSPSTVPKTEDQRPQLDPYQILGPTSSRLANPGSGQIQLWQFLLELLSDSSNSSCITWEGTNGEFKMTDPDEVARRWGERKSKPNMNYDKLSRALRYYYDKNIMTKVHGKRYAYKFDFHGIAQALQPHPPESSLYKYPSDLPYMGSYHAHPQKMNFVAPHPPALPVTSSSFFAAPNPYWNSPTGGIYPNTRLPTSHMPSHLGTYY
notes: as for B1
B4: Gluc1-ELF3 (other, UniProt P78545 1-371, looked up)
chain: MAATCEISNIFSNYFSAMYSSEDSTLASVPPAATFGADDLVLTLSNPQMSLEGTEKASWLGEQPQFWSKTQVLDWISYQVEKNKYDASAIDFSRCDMDGATLCNCALEELRLVFGPLGDQLHAQLRDLTSSSSDELSWIIELLEKDGMAFQEALDPGPFDQGSPFAQELLDDGQQASPYHPGSCGAGAPSPGSSDVSTAGTGASRSSHSSDSGGSDVDLDPTDGKLFPSDGFRDCKKGDPKHGKRKRGRPRKLSKEYWDCLEGKKSKHAPRGTHLWEFIRDILIHPELNEGLMKWENRHEGVFKFLRSEAVAQLWGQKKKNSNMTYEKLSRAMRYYYKREILERVDGRRLVYKFGKNSSGWKEEEVLQSRN
notes: as for B1
B5: ERα-Gluc1 (estrogen receptor alpha fused to Gluc1) (receptor, UniProt P03372 1-595, looked up)
chain: T2 sequence (looked up)
notes: as for B1
B6: Gluc1-FLI1 (full-length FLI1 fused downstream of Gluc1) (other, UniProt Q01543 1-452, looked up)
chain: MDGTIKEALSVVSDDQSLFDSAYGAAAHLPKADMTASGSPDYGQPHKINPLPPQQEWINQPVRVNVKREYDHMNGSRESPVDCSVSKCSKLVGGGESNPMNYNSYMDEKNGPPPPNMTTNERRVIVPADPTLWTQEHVRQWLEWAIKEYSLMEIDTSFFQNMDGKELCKMNKEDFLRATTLYNTEVLLSHLSYLRESSLLAYNTTSHTDQSSRLSVKEDPSYDSVRRGAWGNNMNSGLNKSPPLGGAQTISKNTEQRPQPDPYQILGPTSSRLANPGSGQIQLWQFLLELLSDSANASCITWEGTNGEFKMTDPDEVARRWGERKSKPNMNYDKLSRALRYYYDKNIMTKVHGKRYAYKFDFHGIAQALQPHPTESSMYKYPSDISYMPSYHAHQQKVNFVPPHPSSMPVTSSSFFGAASQYWTSPTGGIYPNPNVPRHPNTHVPSHLGSYY
notes: range 1-93;domain: full length; also called FiI1; not shown: Gaussia luciferase (Gluc), amino-terminal fragment Gluc1, amino acids 1-93

Tests used:
[1] = biological target: T1, GR-Gluc2 (full-length glucocorticoid …); test: PCA in HEK-293T cells, DEX 1 µM with or without RU486 1 µM (FIG. 1C)
Text: EB, empty beads; C, solvent control. Images shown are representative of three biological replicates.
The resulting luminescence was normalized to the signal associated with cells treated with vehicle only.

[2] = biological target: T2, ERα-Gluc2 (estrogen receptor alpha …); test: PCA in HEK-293T cells, estradiol 10 nM 60 min (FIG. 8C)
Procedure: (§1) (A) HEK-293T cells (6×10³) were seeded in 96-well plates. […] (B and C) HEK-293T cells (6×10³) were seeded in 96-well plates. […] Cells were then lysed and luminescence was determined.

[3] = biological target: T3, MR-Gluc2 (mineralocorticoid receptor …); test: PCA in HEK-293T cells, DEX 1 µM 60 min (FIG. 8B)
Procedure: as §1

[4] = biological target: T1, GR-Gluc2 (full-length glucocorticoid …); test: PCA time course after DEX 1 µM in HEK-293T cells (FIG. 2A)
Procedure: (A) HEK-293T cells (6×10³) were seeded in 96-well plates. […] Luminescence of vehicle-treated cells was used for normalization. […] Images were processed using the Zeiss ZEN2011 software. […] Bars, 20 μm.

[5] = biological target: T2, ERα-Gluc2 (estrogen receptor alpha …); test: PCA in HEK-293T cells, vehicle against estradiol 10 nM 60 min (FIG. 8C)
Procedure: as §1

[6] = biological target: T1, GR-Gluc2 (full-length glucocorticoid …); test: PCA in HEK-293T cells, DEX 1 µM or estradiol 10 nM 60 min (FIG. 8D)
Procedure: as §1

Binder	binding result [2]	binding result [3]	further results
B1	no binding		binding result [1]: binds
B2	no binding	binds	
B3	no binding	binds	binding result [4]: binds
B4			binding result [5]: binds
B5			binding result [6]: binds
B6	no binding		

Reference: patent US20210275545A1 (YEDA RESEARCH AND DEVELOPMENT, published 2021)
